Experimental data reported in PMC7367873, “Dissecting the sequence determinants for dephosphorylation by the catalytic subunits of phosphatases PP1 and PP2A” (Nature Communications, 2020).

Assays:
[1] = tested on: GFP-14-3-3β and its binding proteins; assay: GFP-14-3-3β co-IP with LC-MS/MS label-free quantification, untreated versus PP1c-treated; parameters: species or system human; settings: pairwise comparison PP1 vs untreated, 3 replicates each
GFP-14-3-3β = GFP-14-3-3β co-IP with LC-MS/MS, untreated GFP-14-3-3β versus GFP control (14-3-3 interactome); type: binding, human; settings: 3 replicates each
[2] = student's t-test, LC-MS/MS label-free quantification
[3] = pairwise comparison untreated GFP-14-3-3β vs GFP, student's t-test, LC-MS/MS label-free quantification

Molecule	Difference (log2), PP1 vs untreated [1, 2] [log2]	Difference (log2), untreated vs GFP (GFP-14-3-3β; [3]) [log2]	Difference (log2), PP1 vs untreated ([1]; log2 difference, label-free quantification)	Difference (log2), untreated vs GFP (GFP-14-3-3β; log2 difference, pairwise comparison untreated vs GFP, label-free quantification)
ZCCHC8 (protein, UniProt Q6NZY4 2-707, looked up) Zinc finger CCHC …: AAEVYFGDLELFEPFDHPEESIPKPVHTRFKDDDGDEEDENGVGDAELRERLRQCEETIEQLRAENQELKRKLNILTRPSGILVNDTKLDGPILQILFMNNAISKQYHQEIEEFVSNLVKRFEEQQKNDVEKTSFNLLPQPSSIVLEEDHKVEESCAIKNNKEAFSVVGSVLYFTNFCLDKLGQPLLNENPQLSEGWEIPKYHQVFSHIVSLEGQEIQVKAKRPKPHCFNCGSEEHQMKDCPMPRNAARISEKRKEYMDACGEANNQNFQQRYHAEEVEERFGRFKPGVISEELQDALGVTDKSLPPFIYRMRQLGYPPGWLKEAELENSGLALYDGKDGTDGETEVGEIQQNKSVTYDLSKLVNYPGFNISTPRGIPDEWRIFGSIPMQACQQKDVFANYLTSNFQAPGVKSGNKRSSSHSSPGSPKKQKNESNSAGSPADMELDSDMEVPHGSQSSESFQFQPPLPPDTPPLPRGTPPPVFTPPLPKGTPPLTPSDSPQTRTASGAVDEDALTLEELEEQQRRIWAALEQAESVNSDSDVPVDTPLTGNSVASSPCPNELDLPVPEGKTSEKQTLDEPEVPEIFTKKSEAGHASSPDSEVTSLCQKEKAELAPVNTEGALLDNGSVVPNCDISNGGSQKLFPADTSPSTATKIHSPIPDMSKFATGITPFEFENMAESTGMYLRIRSLLKNSPRNQQKNKKASE	-3.239	4.409	–	–
SRSF10 (protein, UniProt O75494 1-262, looked up) Serine/arginine-rich splicing …: MSRYLRPPNTSLFVRNVADDTRSEDLRREFGRYGPIVDVYVPLDFYTRRPRGFAYVQFEDVRDAEDALHNLDRKWICGRQIEIQFAQGDRKTPNQMKAKEGRNVYSSSRYDDYDRYRRSRSRSYERRRSRSRSFDYNYRRSYSPRNSRPTGRPRRSRSHSDNDRFKHRNRSFSRSKSNSRSRSKSQPKKEMKAKSRSRSASHTKTRGTSKTDSKTHYKSGSRYEKESRKKEPPRSKSQSRSQSRSRSKSRSRSWTSPKSSGH	-2.973	3.797	–	–
TFE3 (protein, UniProt P19532 1-575, looked up) Transcription factor E3: MSHAAEPARDGVEASAEGPRAVFVLLEERRPADSAQLLSLNSLLPESGIVADIELENVLDPDSFYELKSQPLPLRSSLPISLQATPATPATLSASSSAGGSRTPAMSSSSSSRVLLRQQLMRAQAQEQERRERREQAAAAPFPSPAPASPAISVVGVSAGGHTLSRPPPAQVPREVLKVQTHLENPTRYHLQQARRQQVKQYLSTTLGPKLASQALTPPPGPASAQPLPAPEAAHTTGPTGSAPNSPMALLTIGSSSEKEIDDVIDEIISLESSYNDEMLSYLPGGTTGLQLPSTLPVSGNLLDVYSSQGVATPAITVSNSCPAELPNIKREISETEAKALLKERQKKDNHNLIERRRRFNINDRIKELGTLIPKSSDPEMRWNKGTILKASVDYIRKLQKEQQRSKDLESRQRSLEQANRSLQLRIQELELQAQIHGLPVPPTPGLLSLATTSASDSLKPEQLDIEEEGRPGAATFHVGGGPAQNAPHQQPPAPPSDALLDLHFPSDHLGDLGDPFHLGLEDILMEEEEGVVGGLSGGALSPLRAASDPLLSSVSPAVSKASSRRSSFSMEEES	-2.839	3.895	–	–
SKIV2L2 (protein, UniProt P42285 2-1042, looked up) Exosome RNA helicase MTR4: ADAFGDELFSVFEGDSTTAAGTKKDKEKDKGKWKGPPGSADKAGKRFDGKLQSESTNNGKNKRDVDFEGTDEPIFGKKPRIEESITEDLSLADLMPRVKVQSVETVEGCTHEVALPAEEDYLPLKPRVGKAAKEYPFILDAFQREAIQCVDNNQSVLVSAHTSAGKTVCAEYAIALALREKQRVIFTSPIKALSNQKYREMYEEFQDVGLMTGDVTINPTASCLVMTTEILRSMLYRGSEVMREVAWVIFDEIHYMRDSERGVVWEETIILLPDNVHYVFLSATIPNARQFAEWICHLHKQPCHVIYTDYRPTPLQHYIFPAGGDGLHLVVDENGDFREDNFNTAMQVLRDAGDLAKGDQKGRKGGTKGPSNVFKIVKMIMERNFQPVIIFSFSKKDCEAYALQMTKLDFNTDEEKKMVEEVFSNAIDCLSDEDKKLPQVEHVLPLLKRGIGIHHGGLLPILKETIEILFSEGLIKALFATETFAMGINMPARTVLFTNARKFDGKDFRWISSGEYIQMSGRAGRRGMDDRGIVILMVDEKMSPTIGKQLLKGSADPLNSAFHLTYNMVLNLLRVEEINPEYMLEKSFYQFQHYRAIPGVVEKVKNSEEQYNKIVIPNEESVVIYYKIRQQLAKLGKEIEEYIHKPKYCLPFLQPGRLVKVKNEGDDFGWGVVVNFSKKSNVKPNSGELDPLYVVEVLLRCSKESLKNSATEAAKPAKPDEKGEMQVVPVLVHLLSAISSVRLYIPKDLRPVDNRQSVLKSIQEVQKRFPDGIPLLDPIDDMGIQDQGLKKVIQKVEAFEHRMYSHPLHNDPNLETVYTLCEKKAQIAIDIKSAKRELKKARTVLQMDELKCRKRVLRRLGFATSSDVIEMKGRVACEISSADELLLTEMMFNGLFNDLSAEQATALLSCFVFQENSSEMPKLTEQLAGPLRQMQECAKRIAKVSAEAKLEIDEETYLSSFKPHLMDVVYTWATGATFAHICKMTDVFEGSIIRCMRRLEELLRQMCQAAKAIGNTELENKFAEGITKIKRDIVFAASLYL	-3.184	4.62	–	–
ARHGEF7 (protein, UniProt Q14155 1-803, looked up) Rho guanine nucleotide …: MNSAEQTVTWLITLGVLESPKKTISDPEGFLQASLKDGVVLCRLLERLLPGTIEKVYPEPRSESECLSNIREFLRGCGASLRLELLFPPSQPPQHLVTTILLSASTFDANDLYQGQNFNKVLSSLVTLNKVTADIGLGSDSVCARPSSHRIKSFDSLGSQSLHTRTSKLFQGQYRSLDMTDNSNNQLVVRAKFNFQQTNEDELSFSKGDVIHVTRVEEGGWWEGTLNGRTGWFPSNYVREVKASEKPVSPKSGTLKSPPKGFDTTAINKSYYNVVLQNILETENEYSKELQTVLSTYLRPLQTSEKLSSANISYLMGNLEEICSFQQMLVQSLEECTKLPEAQQRVGGCFLNLMPQMKTLYLTYCANHPSAVNVLTEHSEELGEFMETKGASSPGILVLTTGLSKPFMRLDKYPTLLKELERHMEDYHTDRQDIQKSMAAFKNLSAQCQEVRKRKELELQILTEAIRNWEGDDIKTLGNVTYMSQVLIQCAGSEEKNERYLLLFPNVLLMLSASPRMSGFIYQGKLPTTGMTITKLEDSENHRNAFEISGSMIERILVSCNNQQDLQEWVEHLQKQTKVTSVGNPTIKPHSVPSHTLPSHPVTPSSKHADSKPAPLTPAYHTLPHPSHHGTPHTTINWGPLEPPKTPKPWSLSCLRPAPPLRPSAALCYKEDLSKSPKTMKKLLPKRKPERKPSDEEFASRKSTAALEEDAQILKVIEAYCTSAKTRQTLNSTWQGTDLMHNHVLADDDQPSLDSLGRRSSLSRLEPSDLSEDSDYDSIWTAHSYRMGSTSRKSCCSYISHQN	-3.042	2.997	–	–
NXF1 (protein, UniProt Q9UBU9 2-619, looked up) Nuclear RNA export factor 1: ADEGKSYSEHDDERVNFPQRKKKGRGPFRWKYGEGNRRSGRGGSGIRSSRLEEDDGDVAMSDAQDGPRVRYNPYTTRPNRRGDTWHDRDRIHVTVRRDRAPPERGGAGTSQDGTSKNWFKITIPYGRKYDKAWLLSMIQSKCSVPFTPIEFHYENTRAQFFVEDASTASALKAVNYKILDRENRRISIIINSSAPPHTILNELKPEQVEQLKLIMSKRYDGSQQALDLKGLRSDPDLVAQNIDVVLNRRSCMAATLRIIEENIPELLSLNLSNNRLYRLDDMSSIVQKAPNLKILNLSGNELKSERELDKIKGLKLEELWLDGNSLCDTFRDQSTYISAIRERFPKLLRLDGHELPPPIAFDVEAPTTLPPCKGSYFGTENLKSLVLHFLQQYYAIYDSGDRQGLLDAYHDGACCSLSIPFIPQNPARSSLAEYFKDSRNVKKLKDPTLRFRLLKHTRLNVVAFLNELPKTQHDVNSFVVDISAQTSTLLCFSVNGVFKEVDGKSRDSLRAFTRTFIAVPASNSGLCIVNDELFVRNASSEEIQRAFAMPAPTPSSSPVPTLSPEQQEMLQAFSTQSGMNLEWSQKCLQDNNWDYTRSAQAFTHLKAKGEIPEVAFMK	–	–	1.555	3.395
THRAP3 (protein, UniProt Q9Y2W1 2-955, looked up) Thyroid hormone …: SKTNKSKSGSRSSRSRSASRSRSRSFSKSRSRSRSLSRSRKRRLSSRSRSRSYSPAHNRERNHPRVYQNRDFRGHNRGYRRPYYFRGRNRGFYPWGQYNRGGYGNYRSNWQNYRQAYSPRRGRSRSRSPKRRSPSPRSRSHSRNSDKSSSDRSRRSSSSRSSSNHSRVESSKRKSAKEKKSSSKDSRPSQAAGDNQGDEAKEQTFSGGTSQDTKASESSKPWPDATYGTGSASRASAVSELSPRERSPALKSPLQSVVVRRRSPRPSPVPKPSPPLSSTSQMGSTLPSGAGYQSGTHQGQFDHGSGSLSPSKKSPVGKSPPSTGSTYGSSQKEESAASGGAAYTKRYLEEQKTENGKDKEQKQTNTDKEKIKEKGSFSDTGLGDGKMKSDSFAPKTDSEKPFRGSQSPKRYKLRDDFEKKMADFHKEEMDDQDKDKAKGRKESEFDDEPKFMSKVIGANKNQEEEKSGKWEGLVYAPPGKEKQRKTEELEEESFPERSKKEDRGKRSEGGHRGFVPEKNFRVTAYKAVQEKSSSPPPRKTSESRDKLGAKGDFPTGKSSFSITREAQVNVRMDSFDEDLARPSGLLAQERKLCRDLVHSNKKEQEFRSIFQHIQSAQSQRSPSELFAQHIVTIVHHVKEHHFGSSGMTLHERFTKYLKRGTEQEAAKNKKSPEIHRRIDISPSTFRKHGLAHDEMKSPREPGYKAEGKYKDDPVDLRLDIERRKKHKERDLKRGKSRESVDSRDSSHSRERSAEKTEKTHKGSKKQKKHRRARDRSRSSSSSSQSSHSYKAEEYTEETEEREESTTGFDKSRLGTKDFVGPSERGGGRARGTFQFRARGRGWGRGNYSGNNNNNSNNDFQKRNREEEWDPEYTPKSKKYYLHDDREGEGSDKWVSRGRGRGAFPRGRGRFMFRKSSTSPKWAHDKFSGEEGEIEDDESGTENREEKDNIQPTTE	-2.776	4.049	–	–
FAM53B (protein, UniProt Q14153 1-422, looked up) Protein FAM53B: MVMVLSESLSTRGADSIACGTFSRELHTPKKMSQGPTLFSCGIMENDRWRDLDRKCPLQIDQPSTSIWECLPEKDSSLWHREAVTACAVTSLIKDLSISDHNGNPSAPPSKRQCRSLSFSDEMSSCRTSWRPLGSKVWTPVEKRRCYSGGSVQRYSNGFSTMQRSSSFSLPSRANVLSSPCDQAGLHHRFGGQPCQGVPGSAPCGQAGDTWSPDLHPVGGGRLDLQRSLSCSHEQFSFVEYCPPSANSTPASTPELARRSSGLSRSRSQPCVLNDKKVGVKRRRPEEVQEQRPSLDLAKMAQNCQTFSSLSCLSAGTEDCGPQSPFARHVSNTRAWTALLSASGPGGRTPAGTPVPEPLPPSFDDHLACQEDLSCEESDSCALDEDCGRRAEPAAAWRDRGAPGNSLCSLDGELDIEQIEKN	-3.06	2.4159	–	–
